From paper PMC8342441 come the findings set out here.

For this assay, the target named is β-arrestin 2-Rluc (UniProt P32121). As to the kind of experiment: BRET (β-arrestin 2 recruitment). The conditions noted are these: point at the highest AngII dose, read off a plot. Background: In BRET a luciferase serves as donor, and the signal depends on an acceptor being close.
The mark [1] stands for this setting: HEK293 cells, Log[AII] = -5 M, parent: est. 0.37.
[2] abbreviates: Log[AngII] = -4 M, parent: est. 0.086.
Where [3] appears, read: HEK293 cells, left plot, Log[AII] = -5 M, parent: est. 0.36.
Setting [4] is: HEK293 cells, right plot, Log[AII] = -5 M, parent: est. 0.35.

As for “YFP-tagged WT angiotensin II type 1 receptor (AT1 receptor) (from UniProt P30556) D2.50N”, the response under setting [1] was 0.36 ΔBRET.
As for “YFP-tagged WT angiotensin II type 1 receptor (AT1 receptor) (from UniProt P30556) F1.48A; L1.52A; I1.57A”, the response under setting [2] is 0.065 ΔBRET.
Turning to “YFP-tagged WT angiotensin II type 1 receptor (AT1 receptor) (from UniProt P30556) F7.55W”, the response under setting [3] is 0.09 ΔBRET.
For the substance “YFP-tagged WT angiotensin II type 1 receptor (AT1 receptor) (from UniProt P30556) F8.54W”, the response under setting [3] is 0.26 ΔBRET.
Same read-out and setting: the value for “YFP-tagged WT angiotensin II type 1 receptor (AT1 receptor) (from UniProt P30556) G1.49L” was 0.05 ΔBRET.
As to “YFP-tagged WT angiotensin II type 1 receptor (AT1 receptor) (from UniProt P30556) K8.49A; F8.50A; K8.51A; Y8.53A; F8.54A”, under setting [2], the response was 0.006 ΔBRET.
Take “YFP-tagged WT angiotensin II type 1 receptor (AT1 receptor) (from UniProt P30556) N3.35A”: the response under setting [1] is 0.12 ΔBRET.
As for “YFP-tagged WT angiotensin II type 1 receptor (AT1 receptor) (from UniProt P30556) N7.49A”, under setting [4], the response was 0.25 ΔBRET.
For “YFP-tagged WT angiotensin II type 1 receptor (AT1 receptor) (from UniProt P30556) N7.49A; P7.50A; F7.55A”, the response under setting [2] was 0.006 ΔBRET.
As to “YFP-tagged WT angiotensin II type 1 receptor (AT1 receptor) (from UniProt P30556) Y7.53A”, the response under setting [4] is 0.055 ΔBRET.
For the substance “YFP-tagged WT angiotensin II type 1 receptor (AT1 receptor) (from UniProt P30556) Y7.53I”, under setting [1], the response was 0.41 ΔBRET.
